Two substances from article PMC11731035 can be followed below.

The experiment deals with plastidic 70S ribosomes of Arabidopsis thaliana (Arabidopsis thaliana (endogenous)). The experiment in a line: co-sedimentation; lysate of Col-0 plants grown at 21 °C layered on a 25% sucrose cushion, 173,292 x g for 20 min; immunoblot of total, supernatant and ribosomal pellet, quantified as R/(R+S); standard ribosome buffer (Mg2+), also with 800 mM KCl (high salt) or 1 mM puromycin.

Take “Trigger factor 1 (Tig1), Arabidopsis thaliana chloroplast (natural protein)”: the fraction co-sedimented with ribosomes was found to be 8%.

Consider “Trigger factor 2 (Tig2), Arabidopsis thaliana chloroplast (natural protein)”, for which the fraction co-sedimented with ribosomes was found to be 25%.
